Biological target: the molecule itself
Assay: crystal structure

B1: TRIM21 RING domain (domain or fragment)
chain: GSHMASAARLTMMWEEVTCPICLDPFVEPVSIECGHSFCQECISQVGKGGGSVCPVCRQRFLLKNLRPNRQLANMVNNLKEISQEARE
stoichiometry N: 2

Source: article doi:10.1101/2022.06.29.498105 (bioRxiv, 2022)
